Measurements published in patent US20040038894A1, “Compounds for modulating cell negative regulations and biological applications thereof” (INSTITUT NATIONAL DE LA SANTE ET DE LA RECHERCHE MEDICALE …, priority 1996, published 2004).
Where a SMILES comes first, the peptide text is derived from it. Where no end group is shown, it is not given here. The star is where a group is joined. Biotin = O=C1N[C@H]2[C@H](CS[C@H]2CCCCC(=O)*)N1

Assays:
SHP-1 = target: T1, SHP-1 (Rattus norvegicus, UniProt P81718); assay: Cell lysate adsorption to peptides, anti-SHP-1 immunoblot; format: binding; conditions: RBL-2H3 lysates, peptide on streptavidin beads
T1 construct: endogenous in cells; host or cells: RBL-2H3
T1 sequence (P81718 whole entry): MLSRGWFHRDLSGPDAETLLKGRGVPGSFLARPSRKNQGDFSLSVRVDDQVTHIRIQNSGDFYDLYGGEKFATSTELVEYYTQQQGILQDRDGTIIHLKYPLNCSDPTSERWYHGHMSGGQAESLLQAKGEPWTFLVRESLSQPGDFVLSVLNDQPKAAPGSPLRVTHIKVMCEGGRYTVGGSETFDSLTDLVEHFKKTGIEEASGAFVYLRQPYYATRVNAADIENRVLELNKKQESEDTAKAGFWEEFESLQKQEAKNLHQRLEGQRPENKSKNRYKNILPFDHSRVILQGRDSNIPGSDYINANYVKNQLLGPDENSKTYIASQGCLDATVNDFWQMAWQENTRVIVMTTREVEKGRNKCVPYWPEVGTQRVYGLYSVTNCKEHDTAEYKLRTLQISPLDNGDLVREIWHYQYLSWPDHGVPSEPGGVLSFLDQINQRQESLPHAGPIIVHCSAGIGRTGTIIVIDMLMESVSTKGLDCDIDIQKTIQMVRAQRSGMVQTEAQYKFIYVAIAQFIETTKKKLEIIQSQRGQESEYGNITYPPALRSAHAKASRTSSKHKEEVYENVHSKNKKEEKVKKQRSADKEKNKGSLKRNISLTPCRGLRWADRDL
Protocol: (§1) Assay for cell lysate adsorption to peptides. RBL-2H3 cells were lysed in NP-40 lysis buffer (1% NP-40, 10 mM Tris-HCl, 150 mM NaCl, 1 mM EDTA, 1 mM PMSF, 10 mM iodoacetamide, 10 mM NaF, 10 mM Na pyrophosphate, 0.4 mM Na vanadate, 10 μg/ml leupeptine, 10 μg/ml aprotinine). Samples were either used directly (whole cell lysates: WCL), or subjected to affinity purification using peptides bound to beads. Biotinylated peptides (5 μg) were coupled to 50 μl streptavidin-agarose bead slurry (Sigma) for 1 hour at 4° C., prior to bead saturation with D-biotin (1 mg/ml) for 1 hour at 4° C. After 3 washes in lysis buffer, samples were separated on SDS-PAGE and transferred to nitrocellulose.
(§2) RBL-2H3 and ^35S-labeled IIA.1.6 cells were lysed in NP-40 lysis buffer (1% NP-40, 10 mM Tris-HCl, 150 mM NaCl, 1 mM EDTA, 1 mM PMSF, 10 mM iodoacetamide, 10 mM NaF, 10 mM Na pyrophosphate, 0.4 mM Na vanadate, 10 μg/ml leupeptin, 10 μg/ml aprotinin). Samples were either used directly (whole cell lysates: WCL), or subjected to affinity purification using peptides bound to beads. Biotinylated peptides (5 μg) were coupled to 50 μl streptavidin-agarose slurry beads for 1 hour at 4° C., prior to bead saturation with D-biotin (1 mg/ml) for 1 hour at 4° C. After 3 washes in lysis buffer, samples were fractionated on 8% SDS-polyacrylamide gel electrophoresis (SDS-PAGE) under reducing condition and transferred to nitrocellulose.
(§3) Results are illustrated by FIG. 15 showing the in vitro interaction between NKG2A ITIMs and SHP-1, SHP-2 and SHIP phosphatases. In FIG. 15, RBL-2H3 cell lysates (15A) or ^35S-labeled ILA.1.6 cell lysates (15B) were absorbed with indicated biotinylated peptides coupled to streptavidin-beads. Affinity-bound proteins (30×10^6 cells/sample) or whole cell lysates (WCL, 5×10^6 cells/sample) were resolved on 8% SDS-PAGE under reducing conditions prior to autoradiography (15B), or immunoblotting using anti-SHIP antiserum, anti-SHP-2 mAb and anti-SHP-1 mAbs (15A).

SHP-2 = target: T2, SHP-2 (Rattus norvegicus, UniProt P41499); assay: Cell lysate adsorption to peptides, anti-SHP-2 immunoblot; format: binding; conditions: RBL-2H3 lysates, peptide on streptavidin beads
T2 construct: RBL-2H3 cells were lysed in NP-40 lysis buffer; endogenous in cells; host or cells: RBL-2H3
T2 sequence (P41499 1-593): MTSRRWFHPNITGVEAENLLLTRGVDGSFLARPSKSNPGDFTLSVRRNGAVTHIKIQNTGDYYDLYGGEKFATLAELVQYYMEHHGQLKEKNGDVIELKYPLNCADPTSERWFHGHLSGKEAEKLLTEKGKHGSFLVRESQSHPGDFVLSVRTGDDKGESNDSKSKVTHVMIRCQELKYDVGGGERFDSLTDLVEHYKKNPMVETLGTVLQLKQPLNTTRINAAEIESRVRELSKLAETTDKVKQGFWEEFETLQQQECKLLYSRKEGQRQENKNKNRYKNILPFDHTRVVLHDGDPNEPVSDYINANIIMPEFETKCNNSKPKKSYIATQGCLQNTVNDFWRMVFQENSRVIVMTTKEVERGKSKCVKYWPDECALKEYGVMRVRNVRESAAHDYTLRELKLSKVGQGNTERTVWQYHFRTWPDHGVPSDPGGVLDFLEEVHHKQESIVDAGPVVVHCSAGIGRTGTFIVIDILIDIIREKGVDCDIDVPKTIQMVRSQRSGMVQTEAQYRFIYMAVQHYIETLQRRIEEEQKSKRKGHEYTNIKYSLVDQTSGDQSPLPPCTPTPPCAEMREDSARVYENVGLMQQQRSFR
Protocol: as §1, §2, §3

GST-SHP-1.SH2(C) = target: T3, GST-SHP-1.SH2(C) (Mus musculus, UniProt P29351); assay: Surface plasmon resonance (BIAcore), SHP-1 C-SH2 domain; format: binding, murine; conditions: phosphorylated peptide immobilized; 5 μl/min
T3 construct: recombinant fusion proteins corresponding to the isolated N- and C-SH2 domains of SHP-1; made in house; host or cells: E. coli DH5α
T3 sequence (P29351 110-213 limits assumed): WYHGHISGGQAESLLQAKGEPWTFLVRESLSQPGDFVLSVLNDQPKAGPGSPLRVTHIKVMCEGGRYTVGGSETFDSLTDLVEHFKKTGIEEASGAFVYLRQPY
Protocol: (§4) Fusion proteins and surface plasmon resonance analysis. Surface plasmon resonance (SPR) measurements were performed on a BIAcore™ (Pharmacia). The GST-SHP-1.SH2(NC), GST-SHP-1.SH2(N), GST-SHP-1.SH2(C), GST-SHIP.SH2 fusion proteins generated from the murine phosphatase cDNA, were purified from DH5α lysates. Briefly, overnight culture at 37° C. in LB medium containing 50 μg/ml ampicillin was diluted 1/10 in fresh medium, and incubated until the absorbance at 600 nm reaches 1-2. At that point, IPTG was added (1 mM), and incubation continued for an additional 4 hours at 37° C. After centrifugation, bacteria pellet was resuspended in TENGN buffer (50 mM Tris pH 8, 1 mM EDTA, 10% glycerol, 1% NP40, 1 mM DTT, 1 mM PMSF, 10 μg/ml aprotinin and 10 μg/ml leupeptine). Bacteria were lysed by sonication. After centrifugation, supernatant was incubated with Glutathione-Sepharose 4B beads (Pharmacia) overnight at 4° C. with slow shaking. After 3 washes with 50 mM Tris pH 8, elution of the fusion protein was carried out using 50 mM Tris pH 8 supplemented with 10 mM reduced glutathione. Before their use in BIAcore™ experiments, fusion proteins were dialyzed in HBS buffer (10 mM HEPES, 150 mM NaCl, 3.4 mM EDTA). Protein purity was assessed by 12.5% SDS-PAGE, and Coomassie blue staining. The running buffer used in all BIAcore™ experiments consisted of HBS buffer supplemented with 0.05% surfactant P20. For preparation of microchips coated with phosphorylated peptides, immunopure streptavidine (Sigma) was first immobilized onto CMS-sensorchip. Then, biotinylated peptides were injected, and their binding to streptavidine-coated microchips was assessed using anti-phosphotyrosine 4G10 mAb (UHI).
(§5) The measurement of phosphorylated p58.2 peptide binding to GST-SHP-1.SH2(N) and GST-SHP-1.SH2(C) fusion proteins was at a constant 5 μl/min flow rate. In the representative experiment of which results are reported in the above table I, 130 and 160 RU of respectively p58.2.1 and p58.2.2 peptides were immobilized on microchips. The regeneration was performed using HBS buffer supplemented with 0.03% SDS. Results are expressed as corrected resonance units (CRU) corresponding to the raw RU values subtracted from background RU value due to the injection medium. […] koff and kon were calculated from three independent measurements using the BLAevaluation 2.0 software. Kd was calculated from koff/kon.

GST-SHP-1.SH2(N) = target: T4, GST-SHP-1.SH2(N) (Mus musculus, UniProt P29351); assay: Surface plasmon resonance (BIAcore), SHP-1 N-SH2 domain; format: binding, murine
T4 construct: recombinant fusion proteins corresponding to the isolated N- and C-SH2 domains of SHP-1; made in house; host or cells: E. coli DH5α
T4 sequence (P29351 4-100 limits assumed): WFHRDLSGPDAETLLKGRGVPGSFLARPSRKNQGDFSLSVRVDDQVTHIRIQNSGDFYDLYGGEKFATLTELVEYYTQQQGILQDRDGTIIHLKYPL
Protocol: as §4, §5

SHIP = target: T5, SHIP (Rattus norvegicus, UniProt P97573); assay: Cell lysate adsorption to peptides, anti-SHIP immunoblot; format: binding; conditions: RBL-2H3 lysates, peptide on streptavidin beads
T5 construct: RBL-2H3 cells were lysed in NP-40 lysis buffer; endogenous in cells; host or cells: RBL-2H3
T5 sequence (P97573 1-1190): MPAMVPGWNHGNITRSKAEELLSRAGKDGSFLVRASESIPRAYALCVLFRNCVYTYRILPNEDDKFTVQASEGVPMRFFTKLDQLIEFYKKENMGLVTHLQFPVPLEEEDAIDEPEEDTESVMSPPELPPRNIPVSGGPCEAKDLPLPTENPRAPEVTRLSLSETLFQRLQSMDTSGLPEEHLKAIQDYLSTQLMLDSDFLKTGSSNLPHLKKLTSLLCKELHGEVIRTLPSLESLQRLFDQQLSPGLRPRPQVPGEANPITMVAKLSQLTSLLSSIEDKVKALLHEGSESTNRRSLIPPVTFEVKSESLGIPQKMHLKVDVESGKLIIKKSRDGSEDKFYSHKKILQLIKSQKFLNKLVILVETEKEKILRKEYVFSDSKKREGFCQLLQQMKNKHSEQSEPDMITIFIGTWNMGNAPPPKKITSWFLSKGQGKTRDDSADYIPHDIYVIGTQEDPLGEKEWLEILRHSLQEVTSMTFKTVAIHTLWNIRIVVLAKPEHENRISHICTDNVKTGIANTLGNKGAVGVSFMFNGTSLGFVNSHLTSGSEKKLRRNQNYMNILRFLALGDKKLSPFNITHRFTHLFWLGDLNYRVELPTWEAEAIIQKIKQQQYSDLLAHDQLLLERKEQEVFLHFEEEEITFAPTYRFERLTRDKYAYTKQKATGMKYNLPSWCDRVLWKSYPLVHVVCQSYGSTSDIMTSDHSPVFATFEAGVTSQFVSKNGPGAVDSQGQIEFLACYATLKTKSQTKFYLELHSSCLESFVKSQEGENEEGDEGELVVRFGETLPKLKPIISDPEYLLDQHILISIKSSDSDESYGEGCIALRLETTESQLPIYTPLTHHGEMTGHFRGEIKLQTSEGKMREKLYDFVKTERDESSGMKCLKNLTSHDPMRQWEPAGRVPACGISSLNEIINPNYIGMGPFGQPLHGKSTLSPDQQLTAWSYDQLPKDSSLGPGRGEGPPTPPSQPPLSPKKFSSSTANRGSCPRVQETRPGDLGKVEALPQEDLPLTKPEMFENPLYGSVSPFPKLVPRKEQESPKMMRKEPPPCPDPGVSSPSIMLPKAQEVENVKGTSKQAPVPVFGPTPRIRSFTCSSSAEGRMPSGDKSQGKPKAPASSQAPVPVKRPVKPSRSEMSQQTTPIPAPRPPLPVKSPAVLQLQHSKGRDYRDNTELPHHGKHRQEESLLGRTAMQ
Protocol: as §1, §2, §3

[1] = phosphorylated peptide immobilized, 5 μl/min

Row | binding of SHP-1 from cell lysates (SHP-1) | binding of SHP-2 from cell lysates (SHP-2) | binding of SHIP from cell lysates (SHIP) | binding of SHIP from cell lysates (SHIP; listed as FcγRIIB phosphorylated ITIM peptides) | Compound | koff (GST-SHP-1.SH2(C)) [s⁻¹] | kon (GST-SHP-1.SH2(C)) [M⁻¹ s⁻¹] | Kd (GST-SHP-1.SH2(N)) [nM] | koff (GST-SHP-1.SH2(N); [1]) [s⁻¹] | kon (GST-SHP-1.SH2(N); [1]) [M⁻¹ s⁻¹]
1 | abolishes the binding | abolishes the binding | – | – | DEQDPQEATY303AQLN (DEQDPQEATYAQLN) [p58.2.1-V301A, point mutant of KIR N-terminal ITIM peptide] | – | – | – | – | –
2 | – | – | – | – | CC(C)C[C@H](NC(=O)[C@H](CCC(N)=O)NC(=O)[C@H](C)NC(=O)[C@H](Cc1ccc(OP(=O)(O)O)cc1)NC(=O)[C@@H](NC(=O)[C@@H](NC(=O)[C@H](CCC(=O)O)NC(=O)[C@H](CCC(N)=O)NC(=O)[C@@H]1CCCN1C(=O)[C@H](CC(=O)O)NC(=O)[C@H](CCC(N)=O)NC(=O)[C@H](CCC(=O)O)NC(=O)[C@H](CC(=O)O)NC(=O)CCCC[C@@H]1SC[C@@H]2NC(=O)N[C@@H]21)C(C)C)[C@@H](C)O)C(=O)N[C@@H](CC(N)=O)C(=O)N[C@@H](Cc1c[nH]cn1)C(=O)O [p58.2.1, DEQDPQEVTY303AQLNH] (HELM PEPTIDE1{[O=C1N[C@H]2[C@H](CS[C@H]2CCCCC(=O)[*:2])N1].D.E.Q.D.P.Q.E.V.T.[O=C([C@H](Cc1ccc(OP(=O)(O)O)cc1)N[*:1])[*:2]].A.Q.L.N.H}$$$$V2.0) | 0.0007 | 5000 | 423 | 0.042 | 100000
3 | recruit | recruit | recruit | associate | KTEAENTITY262SLLK [FcγRIIB ITIM] (Biotin-KTEAENTITYSLLK) [murine FcγRIIB1/B2 ITIM peptide] | – | – | – | – | –
